Data set [1] concerns the target T1, yArgRS (yeast cytoplasmic arginyl-tRNA synthetase) (Saccharomyces cerevisiae, UniProt Q05506 1-607).
T1 sequence: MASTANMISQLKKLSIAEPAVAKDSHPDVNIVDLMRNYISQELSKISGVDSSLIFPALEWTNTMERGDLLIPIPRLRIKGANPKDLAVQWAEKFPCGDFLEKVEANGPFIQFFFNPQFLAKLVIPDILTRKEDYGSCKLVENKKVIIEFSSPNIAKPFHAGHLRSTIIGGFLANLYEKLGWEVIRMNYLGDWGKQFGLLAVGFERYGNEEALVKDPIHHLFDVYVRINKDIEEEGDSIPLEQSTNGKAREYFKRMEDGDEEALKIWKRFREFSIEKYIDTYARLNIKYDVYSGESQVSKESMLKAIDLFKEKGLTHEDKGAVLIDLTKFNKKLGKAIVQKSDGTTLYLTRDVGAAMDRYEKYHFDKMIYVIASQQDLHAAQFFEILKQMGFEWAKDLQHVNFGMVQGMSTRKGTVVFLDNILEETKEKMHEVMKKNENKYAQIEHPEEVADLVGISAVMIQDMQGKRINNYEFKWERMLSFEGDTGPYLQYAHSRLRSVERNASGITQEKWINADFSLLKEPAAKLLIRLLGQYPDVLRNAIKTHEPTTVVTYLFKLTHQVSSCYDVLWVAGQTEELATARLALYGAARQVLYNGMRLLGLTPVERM
The experiment in a line: EMSA + tRNA microarray (MIST); 0.8 uM yArgRS, total tRNA competition, 10 mM Mg2+; 25 mM Tris-HCl pH 7.5, 75 mM KCl, 10 mM MgCl2, 25% glycerol; 15 min at room temperature (Fig 1 legend: on ice); native 6% PAGE at room temperature. As to conditions: protein: recombinant, tags: none (tag-free native recombinant, E. coli TB1, pTrc99B), label: 5'-32P, tRNA cloverleaf.

For data set [2], the target named is T1, yArgRS (yeast cytoplasmic arginyl-tRNA …). The experiment in a line: EMSA + tRNA microarray (MIST); total tRNA competition, 10 mM Mg2+; strong affinity; 25 mM Tris-HCl pH 7.5, 75 mM KCl, 10 mM MgCl2, 25% glycerol; 15 min at room temperature (Fig 1 legend: on ice); native 6% PAGE at room temperature. As to conditions: protein: recombinant; tags: none (tag-free native recombinant, E. coli TB1, pTrc99B); label: 5'-32P; tRNA cloverleaf, long variable loop (class 2). A general note: In EMSA bound probe runs differently from free probe, usually more slowly.

Data set [3] has the same target. The experiment in a line: EMSA + tRNA microarray (MIST); total tRNA competition, 10 mM Mg2+; highest among tRNA Arg; 25 mM Tris-HCl pH 7.5, 75 mM KCl, 10 mM MgCl2, 25% glycerol; 15 min at room temperature (Fig 1 legend: on ice); native 6% PAGE at room temperature. As to conditions: protein: recombinant; tags: none (tag-free native recombinant, E. coli TB1, pTrc99B); label: 5'-32P; tRNA cloverleaf.

Data set [4] has the same target. The experiment in a line: EMSA; 0.5 uM yArgRS, single tRNA, 10 mM Mg2+; 25 mM Tris-HCl pH 7.5, 75 mM KCl, 10 mM MgCl2, 25% glycerol; 15 min at room temperature (Fig 1 legend: on ice); native 6% PAGE at room temperature. As to conditions: protein: recombinant, tags: none (tag-free native recombinant, E. coli TB1, pTrc99B), label: 32P, tRNA cloverleaf.
Data set [5] has the same target. The experiment in a line: EMSA + tRNA microarray (MIST); total tRNA competition, 10 mM Mg2+; 25 mM Tris-HCl pH 7.5, 75 mM KCl, 10 mM MgCl2, 25% glycerol; 15 min at room temperature (Fig 1 legend: on ice); native 6% PAGE at room temperature. As to conditions: protein: recombinant; tags: none (tag-free native recombinant, E. coli TB1, pTrc99B); label: 5'-32P; tRNA cloverleaf.

The results in this text go back to paper PMC4465971, “MIST, a Novel Approach to Reveal Hidden Substrate Specificity in Aminoacyl-tRNA Synthetases”.

Where only a bound is given, the exact number is not on record here.

B1: native tRNA Gly (TCC) (structured_RNA)
RNA: GGGCGGUUAGUGUAGUGGUUAUCAUCCCACCCUUCCAAGGUGGGGACACGGGUUCGAUUCUCGUACCGCUCA
modifications: native post-transcriptional modifications (not specified)
Turning to B1, in data set [1], the binding signal is < 0.3 fold enrichment vs input.

B2: native tRNA Leu (UAA) (structured_RNA)
RNA: GGAGGGUUGGCCGAGUGGUCUAAGGCGGCAGACUUAAGAUCUGUUGGACGGUUGUCCGCGCGAGUUCGAACCUCGCAUCCUUCA
modifications: native post-transcriptional modifications (not specified)
Take B2: in data set [2], the binding result is “binds”.

B3: native tRNA Arg (UCU) (structured_RNA)
RNA: GCUCGCGUGGCGUAAUGGCAACGCGUCUGACUUCUAAUCAGAAGAUUAUGGGUUCGACCCCCAUCGUGAGUG
modifications: native post-transcriptional modifications (not specified)
As for B3, the binding result in data set [3] is “binds”.

B4: native tRNA Ser (AGA) (structured_RNA)
RNA: GGCAACUUGGCCGAGUGGUUAAGGCGAAAGAUUAGAAAUCUUUUGGGCUUUGCCCGCGCAGGUUCGAGUCCUGCAGUUGUCG
modifications: native post-transcriptional modifications (not specified)
For B4, the binding signal in data set [1] (long variable loop (class 2)) is > 3 fold enrichment vs input.

B5: tRNA Asp (GUC) transcript (structured_RNA)
RNA: UCCGUGAUAGUUUAAUGGUCAGAAUGGGCGCUUGUCGCGUGCCAGAUCGGGGUUCAAUUCCCCGUCGCGGAG
modifications: none (unmodified transcript)
With B5, in data set [4], the binding signal was determined as 35 % complexed.

B6: native tRNA Arg (CCU) (structured_RNA)
RNA: GUUCCGUUGGCGUAAUGGUAACGCGUCUCCCUCCUAAGGAGAAGACUGCGGGUUCGAGUCCCGUACGGAACG
modifications: native post-transcriptional modifications (not specified)
B6: in data set [1], the binding signal was < 0.3 fold enrichment vs input.

B7: tRNA Leu (GAG) transcript (structured_RNA)
RNA: GGUACUCUGGCCGAGUGGUCUAAGGCGUCAGGUCGAGGUCCUGAUCUCUUCGGAGGCGCGGGUUCAAACCCCGCGGGUAUCA
modifications: none (unmodified transcript)
On to B7, for which the binding signal in data set [4] (long variable loop (class 2)) is > 60 % complexed.

B8: native tRNA Leu (GAG) (structured_RNA)
RNA: B7 RNA
modifications: native post-transcriptional modifications (not specified)
For B8, the binding signal in data set [1] (long variable loop (class 2)) is > 3 fold enrichment vs input.

B9: native tRNA Ile (GAT) (structured_RNA)
RNA: GAAACUAUAAUUCAAUUGGUUAGAAUAGUAUUUUGAUAAGGUACAAAUAUAGGUUCAAUCCCUGUUAGUUUCA
modifications: native post-transcriptional modifications (not specified)
B9: in data set [1], the binding signal was < 0.3 fold enrichment vs input.

B10: tRNA Pro (AGG) transcript (structured_RNA)
RNA: GGGCGUGUGGUCUAGAGGUAUGAUUCUCGCUUAGGGUGCGGGAGGUCCCGGGUUCGAGUCCCGGCUCGCCCC
modifications: none (unmodified transcript)
For the molecule B10, in data set [4], the binding signal was determined as 19 % complexed.

B11: native tRNA Pro (AGG) (structured_RNA)
RNA: B10 RNA
modifications: native post-transcriptional modifications (not specified)
For the molecule B11, in data set [1], the binding signal was < 0.3 fold enrichment vs input.

B12: native tRNA Gly (GCC) (structured_RNA)
RNA: GCGCAAGUGGUUUAGUGGUAAAAUCCAACGUUGCCAUCGUUGGGCCCCCGGUUCGAUUCCGGGCUUGCGCA
modifications: native post-transcriptional modifications (not specified)
With B12, in data set [5], the binding signal is 4.5 fold lower apparent affinity than tRNA Leu (GAG).
